Reference: FireProtDB (doi:10.1111/j.1432-1033.1993.tb17904.x)
Where “and” joins values, the source holds several entries; their conditions need not be identical. Equal values may be shown once.

Settings: Carica papaya, Thermal, DSC, glycine-HCl 5 mM, reversible: yes, whole UniProt chain shown

B1: Papain wild type, P00784 (protein)
chain: MAMIPSISKLLFVAICLFVYMGLSFGDFSIVGYSQNDLTSTERLIQLFESWMLKHNKIYKNIDEKIYRFEIFKDNLKYIDETNKKNNSYWLGLNVFADMSNDEFKEKYTGSIAGNYTTTELSYEEVLNDGDVNIPEYVDWRQKGAVTPVKNQGSCGSCWAFSAVVTIEGIIKIRTGNLNEYSEQELLDCDRRSYGCNGGYPWSALQLVAQYGIHYRNTYPYEGVQRYCRSREKGPYAAKTDGVRQVQPYNEGALLYSIANQPVSVVLEAAGKDFQLYRGGIFVGPCGNKVDHAVAAVGYGPNYILIKNSWGTGWGENGYIRIKRGTGNSYGVCGLYTSSFYPVKN
pH 1.9
  unfolding enthalpy (calorimetric): 119 kcal/mol and 98.7 kcal/mol
  unfolding enthalpy (van 't Hoff): 65.2 kcal/mol and 50.6 kcal/mol
pH 2.4
  unfolding enthalpy (calorimetric): 133 kcal/mol and 143 kcal/mol and 111 kcal/mol
  unfolding enthalpy (van 't Hoff): 72.6 kcal/mol and 82.3 kcal/mol and 62.9 kcal/mol
pH 2.9
  Tm: 69.5 °C and 70.4 °C
  unfolding enthalpy (calorimetric): 154 kcal/mol and 162 kcal/mol
  unfolding enthalpy (van 't Hoff): 79.6 kcal/mol and 89.2 kcal/mol
pH 3.5
  unfolding enthalpy (calorimetric): 206 kcal/mol and 226 kcal/mol and 189 kcal/mol
  unfolding enthalpy (van 't Hoff): 113 kcal/mol and 118 kcal/mol and 98.9 kcal/mol
pH 3.9
  unfolding enthalpy (calorimetric): 229 kcal/mol and 232 kcal/mol and 198 kcal/mol
  unfolding enthalpy (van 't Hoff): 132 kcal/mol and 130 kcal/mol and 114 kcal/mol
